Data from patent US20170044230A1 (USTAV ORGANICKE CHEMIE A BIOCHEMIE AV CR, V.V.I., priority 2014, published 2017).
Non-standard residues stand in square brackets, D forms with d. Residues, ends and D or L forms follow the SMILES beside them. No end group written: not given here. *: point of attachment. Palmitoyl = CCCCCCCCCCCCCCCC(=O)*; Myristoyl = CCCCCCCCCCCCCC(=O)*; Cha = N[C@@H](CC1CCCCC1)C(=O)O; Decanoyl = CCCCCCCCCC(=O)*; Octanoyl = CCCCCCCC(=O)*; Dap = NC[C@H](N)C(=O)O; Sar = CNCC(=O)O

B1: ghrelin analog no. 4, (Sar)S(Dpr-N-myr)(1-Nal)LSPEHQKAQQRKESKKPPAKLQPR (peptide)
peptide: XSXXLSPEHQKAQQRKESKKPPAKLQPR
modifications: sarcosine (Sar) at position 1; diaminopropionic acid N-myristoyl (Dpr-N-myr) at position 3; 1-naphtylalanine (1-Nal) at position 4
notes: Synthetic ghrelin analog
B2: ghrelin analog no. 6, (Sar)S(Dpr-N-myr)(Cha)LSPEHQKAQQRKESKKPPAKLQPR (peptide)
peptide: XSXXLSPEHQKAQQRKESKKPPAKLQPR
modifications: sarcosine (Sar) at position 1; diaminopropionic acid N-myristoyl (Dpr-N-myr) at position 3; cyclohexylalanine (Cha) at position 4
notes: Synthetic ghrelin analog
B3: ghrelin analog no. 8, (Sar)S(Dpr-N-oct)(Cha)LSPEHQKAQQRKESKKPPAK(N-palm)LQPR (peptide)
peptide: XSXXLSPEHQKAQQRKESKKPPAKLQPR
modifications: sarcosine (Sar) at position 1; diaminopropionic acid N-octanoyl (Dpr-N-oct) at position 3; cyclohexylalanine (Cha) at position 4; Lys 24 N-palmitoyl (K(N-palm))
notes: Synthetic ghrelin analog
B4: ghrelin analog no. 3, (Sar)S(Dpr-N-dec)(1-Nal)LSPEHQKAQQRKESKKPPAKLQPR (peptide)
peptide: XSXXLSPEHQKAQQRKESKKPPAKLQPR
modifications: sarcosine (Sar) at position 1; diaminopropionic acid N-decanoyl (Dpr-N-dec) at position 3; 1-naphtylalanine (1-Nal) at position 4
notes: Synthetic ghrelin analog
B5: ghrelin analog no. 5, (Sar)S(Dpr-N-dec)(Cha)LSPEHQKAQQRKESKKPPAKLQPR (peptide)
peptide: XSXXLSPEHQKAQQRKESKKPPAKLQPR
modifications: sarcosine (Sar) at position 1; diaminopropionic acid N-decanoyl (Dpr-N-dec) at position 3; cyclohexylalanine (Cha) at position 4
notes: Synthetic ghrelin analog
B6: ghrelin analog no. 1, (Sar)S(Dpr-N-dec)FLSPEHQKAQQRKESKKPPAKLQPR (peptide)
peptide: XSXFLSPEHQKAQQRKESKKPPAKLQPR
modifications: sarcosine (Sar) at position 1; diaminopropionic acid N-decanoyl (Dpr-N-dec) at position 3
notes: Synthetic ghrelin analog
B7: ghrelin analog no. 10, (Sar)S(Dpr-N-oct)(tBu)LSPEHQKAQQRKESKKPPAKLQPR (peptide)
peptide: XSXXLSPEHQKAQQRKESKKPPAKLQPR
modifications: sarcosine (Sar) at position 1; diaminopropionic acid N-octanoyl (Dpr-N-oct) at position 3; tertbutylalanine (tBu) at position 4
notes: Synthetic ghrelin analog
B8: ghrelin analog no. 12, (Sar)S(Dpr-N-9-decen)FLSPEHQKAQQRKESKKPPAKLQPR (peptide)
peptide: XSXFLSPEHQKAQQRKESKKPPAKLQPR
modifications: sarcosine (Sar) at position 1; diaminopropionic acid N-9-decenoyl (Dpr-N-9-decen) at position 3
notes: Synthetic ghrelin analog
B9: ghrelin analog no. 2, (Sar)S(Dpr-N-myr)FLSPEHQKAQQRKESKKPPAKLQPR (peptide)
peptide: XSXFLSPEHQKAQQRKESKKPPAKLQPR
modifications: sarcosine (Sar) at position 1; diaminopropionic acid N-myristoyl (Dpr-N-myr) at position 3
notes: Synthetic ghrelin analog; also called analog 2
B10: ghrelin analog no. 11, (Sar)S(Dpr-N-10-undecyn)FLSPEHQKAQQRKESKKPPAKLQPR (peptide)
peptide: XSXFLSPEHQKAQQRKESKKPPAKLQPR
modifications: sarcosine (Sar) at position 1; diaminopropionic acid N-10-undecynoyl (Dpr-N-10-undecyn) at position 3
notes: Synthetic ghrelin analog
B11: ghrelin analog no. 13, (Sar)S(Dpr-N-oct)(PheCl2)LSPEHQKAQQRKESKKPPAKLQPR (peptide)
peptide: XSXXLSPEHQKAQQRKESKKPPAKLQPR
modifications: not fully specified; sarcosine (Sar) at position 1; diaminopropionic acid N-octanoyl (Dpr-N-oct) at position 3; dichlorophenylalanine (PheCl2) at position 4
notes: Synthetic ghrelin analog
B12: ghrelin analog no. 14, (Sar)S(Dpr-N-myr)(PheCl2)LSPEHQKAQQRKESKKPPAKLQPR (peptide)
peptide: XSXXLSPEHQKAQQRKESKKPPAKLQPR
modifications: not fully specified; sarcosine (Sar) at position 1; diaminopropionic acid N-myristoyl (Dpr-N-myr) at position 3; dichlorophenylalanine (PheCl2) at position 4
notes: Synthetic ghrelin analog; also called analog 14
B13: ghrelin analog no. 9, (Sar)S(Dpr-N-oct)(Nal)LSPEHQKAQQRKESKKPPAK(N-palm)LQPR (peptide)
peptide: XSXXLSPEHQKAQQRKESKKPPAKLQPR
modifications: not fully specified; sarcosine (Sar) at position 1; diaminopropionic acid N-octanoyl (Dpr-N-oct) at position 3; naphtylalanine (Nal) at position 4; Lys 24 N-palmitoyl (K(N-palm))
notes: Synthetic ghrelin analog
B14: ghrelin analog no. 7, (Sar)S(Dpr-N-oct)FLSPEHQKAQQRKESKKPPAK(N-palm)LQPR (peptide)
peptide: XSXFLSPEHQKAQQRKESKKPPAKLQPR
modifications: sarcosine (Sar) at position 1; diaminopropionic acid N-octanoyl (Dpr-N-oct) at position 3; Lys 24 N-palmitoyl (K(N-palm))
notes: Synthetic ghrelin analog

Tests used:
fed C57BL/6 male mice = assay: Effect of SC administered ghrelin analogs on food intake; type: in vivo; details: for maximal effect at 5 mg/kg on food intake: SC 5 mg/kg, evaluated 480 min after administration; for ED50 (250 min after injection), effect on food intake: SC, fed mice
Method: All of the experiments followed the ethical guidelines for animal experiments and Czech Republic law 246/1992 and were approved by the committee for experiments with laboratory animals of the Academy of Sciences of the Czech Republic. Male C57BL/6 mice (Charles River, Germany) were housed at a temperature 22±2° C. under a daily cycle of 12/12 h light/dark (light from 6:00) with free access to water and a standard chow diet St-1 which contained […] of calories from protein, fat and carbohydrate, respectively, and its energy content was 3.4 kcal/g (Mlýn Kocanda, Praha, Czech Republic). Mice were placed into separate cages for one week before experiment, they had free access to water and food pellets. Closely before the experiment, the food pellets were removed from the cages. […] 15 min after the injection, mice were given preweighed food pellets. Food intake was monitored for 8-10 hours at 30-min intervals. Mice had free access to water during the experiment. Experiments were performed at least twice for each tested compound, each experimental group had at least 5 mice.
Data from food intake experiments were analyzed by one-way ANOVA followed by Dunnett's post-hoc test using GraphPad Prism Software (San Diego, Calif., USA), P<0.05 was considered statistically significant. ED50 values were calculated using GraphPad Prism Software as the dose of the tested compound required to elicit half-maximal effect at 250 min after administration of the corresponding compound.
Food intake was monitored for […] after administration of the compounds. ED50 values were determined 250 min after administration. Maximal effect on food intake was evaluated […] after administration of the compounds at a dose of 5 mg/kg of body weight. NT—not tested.

human GHS-R1a receptor = biological target: T1, human GHS-R1a receptor (Homo sapiens, UniProt Q92847); assay: Competitive binding studies (displacement of 125I-ghrelin); details: for affinity for GHS-R1a compared with ghrelin: in words; for % of ghrelin binding: relative to ghrelin = 100
T1 construct: purchased Multispan, Hayward, Calif., USA; host or cells: HEK293T cells, isolated plasma membranes
Method: Isolated plasma membranes from the HEK293T cells with transfected human GHS-R1a receptor (Multispan, Hayward, Calif., USA) were used. […] Experiments were carried out in duplicates at least three times. Competitive binding curves were plotted using GraphPad Prism Software (San Diego, Calif., USA) while comparing the best fit for single binding sites models.

[1] = biological target: T2, human GHS-R1a receptor (growth hormone secretagogue receptor 1a) (human, UniProt Q92847 1-366); assay: cell-based or functional assay
[2] = biological target: T2, human GHS-R1a receptor (growth hormone …); assay: competitive displacement of 125I-ghrelin, membranes of HEK293T cells with transfected human GHS-R1a
Method: Competitive binding studies were performed according to the principles of Motulsky and Neubig (Motulsky & Neubig, 2002). Isolated plasma membranes from the HEK293T cells with transfected human GHS-R1a receptor (Multispan, Hayward, Calif., USA) were used. […] The binding reaction was stopped by the addition of ice-cold washing buffer (20 mM Tris pH 7.4, 10 mM MgCl₂, 2.5 mM EDTA, 0.015% Triton X-100) followed by rapid filtration over GF/C filters (Whatman, Clifton, N.J., USA) presoaked with 0.5% PEI in binding buffer using a Brandel cell harvester (Brandel Inc., Gaithersburg, Md., USA). Bound radioactivity was determined by gamma counting (Wizard 1470 Automatic Gamma Counter; PerkinElmer Life and Analytical Sciences, Waltham, Mass.).

T1 sequence (Q92847 whole entry): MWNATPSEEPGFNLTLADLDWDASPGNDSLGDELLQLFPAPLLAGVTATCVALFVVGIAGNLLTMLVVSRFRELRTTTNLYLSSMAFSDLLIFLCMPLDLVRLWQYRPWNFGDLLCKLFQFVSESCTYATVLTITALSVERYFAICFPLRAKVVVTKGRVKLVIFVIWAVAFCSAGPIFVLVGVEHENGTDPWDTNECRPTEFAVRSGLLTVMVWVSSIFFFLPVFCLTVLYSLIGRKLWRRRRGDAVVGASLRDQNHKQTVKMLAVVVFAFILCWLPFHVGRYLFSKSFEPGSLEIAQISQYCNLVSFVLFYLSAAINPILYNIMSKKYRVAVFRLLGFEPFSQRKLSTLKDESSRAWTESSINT
T2 sequence (Q92847 whole entry): as above

| Molecule | IP1 - EC50 [nM] (inositol phosphate accumulation, IP-One HTRF) [1] | % of ghrelin binding [2] [%] | Ki [2] [nM] | other results |
| --- | --- | --- | --- | --- |
| CCCCCCCCCC(=O)NC[C@H](NC(=O)[C@H](CO)NC(=O)CNC)C(=O)N[C@@H](Cc1ccccc1)C(=O)N[C@@H](CC(C)C)C(=O)N[C@@H](CO)C(=O)N1CCC[C@H]1C(=O)N[C@@H](CCC(=O)O)C(=O)N[C@@H](Cc1c[nH]cn1)C(=O)N[C@@H](CCC(N)=O)C(=O)N[C@@H](CCCCN)C(=O)N[C@@H](C)C(=O)N[C@@H](CCC(N)=O)C(=O)N[C@@H](CCC(N)=O)C(=O)N[C@@H](CCCNC(=N)N)C(=O)N[C@@H](CCCCN)C(=O)N[C@@H](CCC(=O)O)C(=O)N[C@@H](CO)C(=O)N[C@@H](CCCCN)C(=O)N[C@@H](CCCCN)C(=O)N1CCC[C@H]1C(=O)N1CCC[C@H]1C(=O)N[C@@H](C)C(=O)N[C@@H](CCCCN)C(=O)N[C@@H](CC(C)C)C(=O)N[C@@H](CCC(N)=O)C(=O)N1CCC[C@H]1C(=O)N[C@@H](CCCNC(=N)N)C(=O)O [Analog 1] | – | – | – | maximal effect at 5 mg/kg on food intake (fed C57BL/6 male mice): 218.8 % of Dpr^3ghr; ED50 (250 min after injection), effect on food intake (fed C57BL/6 male mice): 3.90 mg/kg; affinity for GHS-R1a compared with ghrelin (human GHS-R1a receptor): higher affinities for GHS-R1a than ghrelin; % of ghrelin binding (human GHS-R1a receptor): 183% |
| CCCCCCCCCC(=O)NC[C@H](NC(=O)[C@H](CO)NC(=O)CNC)C(=O)N[C@@H](CC1CCCCC1)C(=O)N[C@@H](CC(C)C)C(=O)N[C@@H](CO)C(=O)N1CCC[C@H]1C(=O)N[C@@H](CCC(=O)O)C(=O)N[C@@H](Cc1c[nH]cn1)C(=O)N[C@@H](CCC(N)=O)C(=O)N[C@@H](CCCCN)C(=O)N[C@@H](C)C(=O)N[C@@H](CCC(N)=O)C(=O)N[C@@H](CCC(N)=O)C(=O)N[C@@H](CCCNC(=N)N)C(=O)N[C@@H](CCCCN)C(=O)N[C@@H](CCC(=O)O)C(=O)N[C@@H](CO)C(=O)N[C@@H](CCCCN)C(=O)N[C@@H](CCCCN)C(=O)N1CCC[C@H]1C(=O)N1CCC[C@H]1C(=O)N[C@@H](C)C(=O)N[C@@H](CCCCN)C(=O)N[C@@H](CC(C)C)C(=O)N[C@@H](CCC(N)=O)C(=O)N1CCC[C@H]1C(=O)N[C@@H](CCCNC(=N)N)C(=O)O [Analog 5] (H-[Sar]S[Dap](Decanoyl)[Cha]LSPEHQKAQQRKESKKPPAKLQPR-OH; N-terminus and C-terminus assumed) | – | – | – | maximal effect at 5 mg/kg on food intake (fed C57BL/6 male mice): 204.5 % of Dpr^3ghr; ED50 (250 min after injection), effect on food intake (fed C57BL/6 male mice): 1.02 mg/kg; affinity for GHS-R1a compared with ghrelin (human GHS-R1a receptor): higher affinities for GHS-R1a than ghrelin; % of ghrelin binding (human GHS-R1a receptor): 110% |
| B1 | 9.75 | 57 | 2.01 | Ca^2+ - EC50 [nM] (intracellular calcium mobilization, Fluo-4AM) [1]: 10.9 nM |
| [Sar]S[Dap](Decanoyl)FLSPEHQKAQQRK(Palmitoyl)ES [ghrelin analog no. 15, (Sar)S(Dpr-N-dec)FLSPEHQKAQQRK(N-palm)ES] | – | 19 | 5.99 | – |
| B2 | 3.08 | 18 | 6.41 | Ca^2+ - EC50 [nM] (intracellular calcium mobilization, Fluo-4AM) [1]: 11.4 nM |
| B3 | – | 6 | 20.8 | – |
| B4 | 2.08 | 176 | 0.65 | Ca^2+ - EC50 [nM] (intracellular calcium mobilization, Fluo-4AM) [1]: 18.6 nM |
| [Sar]S[Dap](Decanoyl)FLSPEHQKAQQRKES [ghrelin analog no. 17, (Sar)S(Dpr-N-dec)FLSPEHQKAQQRKES] | – | 30 | 3.71 | – |
| [Sar]S[Dap](Myristoyl)FLSPEHQKAQQRK(Palmitoyl)ES [ghrelin analog no. 16, (Sar)S(Dpr-N-myr)FLSPEHQKAQQRK(N-palm)ES] | – | 2 | 51 | – |
| GSXFLSPEHQKAQQRKESKKPPAKLQPR (diaminopropionic acid (Dpr) bearing octanoyl at position 3, Synthetic ghrelin analog) [Dpr^3ghrelin] | 16.3 | 169 | 0.68 | – |
| GSS(Octanoyl)FLSPEHQKAQQRKESKKPPAKLQPR [Ghrelin] | – | 100 | – | – |
| B5 | 3.28 | 110 | 1.04 | Ca^2+ - EC50 [nM] (intracellular calcium mobilization, Fluo-4AM) [1]: 10.6 nM |
| B6 | 12.6 | 183 | 0.63 | Ca^2+ - EC50 [nM] (intracellular calcium mobilization, Fluo-4AM) [1]: 9.66 nM |
| B7 | – | 24 | 4.71 | – |
| B8 | – | 76 | 1.51 | – |
| [Sar]S[Dap](Myristoyl)FLSPEHQKAQQRKES [ghrelin analog no. 18, (Sar)S(Dpr-N-myr)FLSPEHQKAQQRKES] | – | 34 | 3.38 | – |
| B9 | 7.1 | 54 | 2.1 | Ca^2+ - EC50 [nM] (intracellular calcium mobilization, Fluo-4AM) [1]: 36.6 nM |
| B10 | – | 139 | 0.83 | – |
| B11 | – | 47 | 2.45 | – |
| B12 | – | 7 | 16.8 | – |
| B13 | – | 5 | 23.3 | – |
| B14 | – | 19 | 6.09 | – |
